The text below walks through data of publication PMC11931166, “Heterologous expression and characterization of xylose-tolerant GH 43 family β-xylosidase/α-L-arabinofuranosidase from Limosilactobacillus fermentum and its application in xylan degradation” (Frontiers in Bioengineering and Biotechnology, 2025).

Data set [1] addresses T1, LfXyl43 (GH 43 β-xylosidase/α-L-arabinofuranosidase) (Limosilactobacillus fermentum, UniProt A0ABF7R1E2).
T1 construct: gene LAF_0405; recombinant rLfXyl43, 551 residues, C-terminal 6× histidine tag
T1 sequence (A0ABF7R1E2 1-551): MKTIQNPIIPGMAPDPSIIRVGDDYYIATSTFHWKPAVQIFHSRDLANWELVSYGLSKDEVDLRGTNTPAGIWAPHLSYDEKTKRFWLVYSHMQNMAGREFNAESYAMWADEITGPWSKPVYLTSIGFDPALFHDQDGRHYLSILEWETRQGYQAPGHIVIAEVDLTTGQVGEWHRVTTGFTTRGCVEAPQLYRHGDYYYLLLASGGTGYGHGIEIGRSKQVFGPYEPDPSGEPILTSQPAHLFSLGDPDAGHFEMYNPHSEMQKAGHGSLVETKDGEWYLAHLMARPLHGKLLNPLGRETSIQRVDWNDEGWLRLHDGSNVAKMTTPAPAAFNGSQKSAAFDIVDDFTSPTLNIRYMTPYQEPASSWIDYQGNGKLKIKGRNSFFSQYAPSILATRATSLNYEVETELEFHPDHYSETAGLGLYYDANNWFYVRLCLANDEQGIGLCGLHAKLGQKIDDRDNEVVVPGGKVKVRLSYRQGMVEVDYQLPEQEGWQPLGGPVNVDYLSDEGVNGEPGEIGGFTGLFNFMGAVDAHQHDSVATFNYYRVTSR
Kind of data set: specific activity of purified enzyme at […] substrate. It is filed as biochemical.

Substrate in data set [2]: OC1OC[C@@H](O[C@@H]2OC[C@@H](O)[C@H](O)[C@H]2O)[C@H](O)[C@H]1O
Kind of data set: Michaelis-Menten kinetics, DNSA reducing sugar assay (Km). It is filed as biochemical, Limosilactobacillus fermentum. Particulars: catalytic pocket, subsites −[…] and +[…] (predicted).

Substrate in data set [3]: OC1OC[C@@H](O[C@@H]2OC[C@@H](O[C@@H]3OC[C@@H](O)[C@H](O)[C@H]3O)[C@H](O)[C@H]2O)[C@H](O)[C@H]1O
The description is as above. The data set is classed as biochemical, Limosilactobacillus fermentum.

Substrate in data set [4]: OC1OC[C@@H](O[C@@H]2OC[C@@H](O[C@@H]3OC[C@@H](O[C@@H]4OC[C@@H](O)[C@H](O)[C@H]4O)[C@H](O)[C@H]3O)[C@H](O)[C@H]2O)[C@H](O)[C@H]1O
The description is as above. Particulars: catalytic pocket, Asp15 and Glu188 at the −[…] subsite (predicted). The data set is classed as biochemical, Limosilactobacillus fermentum.

Substrate in data set [5]: O=[N+]([O-])c1ccc(O[C@@H]2OC[C@@H](O)[C@H](O)[C@H]2O)cc1
Kind of data set: purified protein. Particulars: catalytic pocket, Asp15, Asp129 and Glu188 (predicted). The data set is classed as biochemical, Limosilactobacillus fermentum.

Substrate in data set [6]: O=[N+]([O-])c1ccc(O[C@@H]2O[C@@H](CO)[C@H](O)[C@H]2O)cc1
As to the kind of experiment: purified protein. It is filed as biochemical, Limosilactobacillus fermentum.

As for `O=[N+]([O-])c1ccccc1O[C@@H]1OC[C@@H](O)[C@H](O)[C@H]1O` [oNPX, o-nitrophenyl-β-D-xylopyranoside], the “Specific activity, U/mg” value in data set [1] is reported as 3.8 ± 0.1 U/mg.

B1: LfXyl43 (GH 43 β-xylosidase/α-L-arabinofuranosidase) (Limosilactobacillus fermentum IFO 3956) (protein)
chain: MKTIQNPIIPGMAPDPSIIRVGDDYYIATSTFHWKPAVQIFHSRDLANWELVSYGLSKDEVDLRGTNTPAGIWAPHLSYDEKTKRFWLVYSHMQNMAGREFNAESYAMWADEITGPWSKPVYLTSIGFDPALFHDQDGRHYLSILEWETRQGYQAPGHIVIAEVDLTTGQVGEWHRVTTGFTTRGCVEAPQLYRHGDYYYLLLASGGTGYGHGIEIGRSKQVFGPYEPDPSGEPILTSQPAHLFSLGDPDAGHFEMYNPHSEMQKAGHGSLVETKDGEWYLAHLMARPLHGKLLNPLGRETSIQRVDWNDEGWLRLHDGSNVAKMTTPAPAAFNGSQKSAAFDIVDDFTSPTLNIRYMTPYQEPASSWIDYQGNGKLKIKGRNSFFSQYAPSILATRATSLNYEVETELEFHPDHYSETAGLGLYYDANNWFYVRLCLANDEQGIGLCGLHAKLGQKIDDRDNEVVVPGGKVKVRLSYRQGMVEVDYQLPEQEGWQPLGGPVNVDYLSDEGVNGEPGEIGGFTGLFNFMGAVDAHQHDSVATFNYYRVTSR
notes: recombinant rLfXyl43, 551 residues, C-terminal 6× histidine tag
Regarding B1, the Km (in general, the substrate concentration at which the rate is half of its maximum) in data set [2] is listed as 134.7 mM; in data set [3] it was 120.2 mM; in data set [4] it was 84.2 mM; in data set [5], 2.0 mM; in data set [6], 1.5 mM. The Vmax (commonly the rate approached at saturating substrate) in data set [2] was 241 µmol/min/mg; in data set [3], 441 µmol/min/mg; in data set [4], 488 µmol/min/mg; in data set [5], 19.7 µmol/min/mg; in data set [6] it was 0.4 µmol/min/mg. The kcat – broadly, the maximal rate divided by the concentration of active sites – in data set [2] is 1740 s⁻¹; in data set [3], 3170 s⁻¹; in data set [4], 3530 s⁻¹; in data set [5], 142 s⁻¹; in data set [6], 2.8 s⁻¹. For the same molecule, the kcat/Km (in general, the second-order rate constant that governs catalysis at low substrate concentration) in data set [2] was 12900 M⁻¹ s⁻¹; in data set [3], 26400 M⁻¹ s⁻¹; in data set [4], 41900 M⁻¹ s⁻¹; in data set [6], 1900 M⁻¹ s⁻¹.
